The text below walks through data of patent publication US20230265192A1 (GIGAGEN, published 2023).

First the molecules themselves.
B1: antibody A4 (L4H4) (antibody, V domains shown)
VH: QVQLVESGGGVVQPGRSLRISCAASGFTFSSYGIHWVRQAPGKGLQWVAVIWYDGRNKYYADSVKGRFTISRDNSKNTLYLQMNSLRAEDTAVYYCSRSGSFGAFDIWGQGTMVTVSS
VL: EIVLTQSPGTLSLSPGDRATLSCRASQSGSSSYLAWYQQKPGQAPRLLIYGASSRATGIPDRFSGSGSGTDFTLTISRLEPEDFAVYYCQQYGTSPFTSGPGTKVDIK
notes: also called aCTLA-4.29
B2: antibody A13 (L13H13) (antibody, V domains shown)
VH: QVQLVESGGGVVQPGRSLRLSCAASGFTFSSYGMHWVRQAPGKGLEWVAVIWYDGRNKDYADSVKGRITISRDNSKNTLYLQMNSLRAEDTAVYYCARGGLLGPYFDYWGQGTLVTVSS
VL: not shown
notes: also called aCTLA-4.14
B3: antibody A11 (L11H11) (antibody, V domains shown)
VH: QVQLVESGGGVVQPGRSLRLSCAASGFTFSSYGMHWVRQAPGKGLEWVAVIWYDVGNKYYIDSVKGRFTISRDNSKNTLYLQMNSLRAEDTAVYYCARDYYGSGSPRHFDYWGQGTLVTVSS
VL: DIQLTQSPSFLSASVGDRVTITCRASQGISSYLAWYQQKPGKAPKLLIYAASTLQSGVPSRFSGSGSGTEFTLTISSLQPEDFATYYCQQLNSYPPTFGQGTKVEIK
notes: also called aCTLA-4.31
B4: antibody A6 (L6H6) (antibody, V domains shown)
VH: QVQLVESGGGVVQPGRSLRLSCAASGFTFSSYGMHWVRQAPGKGLEWVAVIWYDGSYKYYADSVKGRFTISRDDSKNTLYLQMSSLRAEDTAVYYCARAPHYAILTGYYEDYWGQGTLVTVSS
VL: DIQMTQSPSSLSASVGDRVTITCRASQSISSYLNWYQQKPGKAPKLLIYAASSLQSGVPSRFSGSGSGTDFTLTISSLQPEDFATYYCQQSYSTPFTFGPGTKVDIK

The Kd is the concentration at which binding is half-saturated. Higher therefore signals lower affinity. As a reminder, the koff is the first-order rate constant of dissociation. A word on the kon: it is the rate constant with which the complex forms. The low end stands for slower complex formation, the high end for faster complex formation.

mouse CTLA-4, sequence (P09793 36-161 limits assumed): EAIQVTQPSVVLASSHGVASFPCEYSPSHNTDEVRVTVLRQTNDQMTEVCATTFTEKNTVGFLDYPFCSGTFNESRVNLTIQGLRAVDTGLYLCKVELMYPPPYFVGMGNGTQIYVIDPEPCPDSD

The target in the first experiment is T1, His-tagged human CTLA-4 (CT4-H5229; Acro Biosystems) (human, UniProt P16410 36-161).
T1 construct: bought soluble protein; also called soluble human CTLA-4; recombinant human CTLA-4; not shown: His tag
T1 sequence (P16410 36-161 limits assumed): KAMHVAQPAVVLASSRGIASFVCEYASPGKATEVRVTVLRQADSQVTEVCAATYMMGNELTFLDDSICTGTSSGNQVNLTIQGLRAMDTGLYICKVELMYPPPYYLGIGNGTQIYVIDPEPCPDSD
The experiment can be described thus: SPR (Carterra). Here is the method: (§1) Then, goat anti-Human IgG Fc (Southern Biotech 2047-01) was coupled for 10 minutes at […] in 10 mM Sodim Acetate pH 4.5 (Carterra Inc.). The surface was then deactivated with 1 M ethanolamine pH 8.5 (Carterra Inc.). Running buffer used for the lawn immobilization was HBS-EPC (10 mM HEPES, 150 mM NaCl, 3 mM EDTA, 0.05% Tween 20, pH 7.4; Teknova).
(§2) The sensor chip was then transferred to a continuous flow microspotter (CFM; Carterra Inc.) for array capturing. The mAb supernatants were diluted 50-fold ([…] final concentration) into HBS-EPC with 1 mg/mL BSA. The samples were each captured twice with 15-minute and 4-minute capture steps on the first and second prints, respectively, to create multiple densities, using a […] flow rate. The running buffer in the CFM was also HBS-EPC.
(§3) Next, the sensor chip was loaded onto an SPR reader (MX-96 system; Ibis Technologies) for the kinetic analysis. CTLA-4 was injected at five increasing concentrations in a four-fold dilution series with concentrations of 1.95, 7.8, 31.25, 125, and 500 nM in running buffer (HBS-EPC with 1.0 mg/mL BSA). CTLA-4 injections were 5 minutes with a 15-minute dissociation at […] in a non-regenerative kinetic series. An injection of the goat anti-Human IgG Fc capture antibody at […] was injected at the end of the series to verify the capture level of each mAb. Binding data was double referenced by subtracting an interspot surface and a blank injection and analyzed for ka (on-rate), kd (off-rate), and KD (affinity) using the Kinetic Interaction Tool software (Carterra Inc.).
Consider B1, for which the Kd amounted to 3 nM, the koff is 0.00023 s⁻¹ and the kon stood at 76000 M⁻¹ s⁻¹.

The molecule B2 gave a Kd of 3.2 nM, a koff of 0.00042 s⁻¹ and a kon of 130000 M⁻¹ s⁻¹.

B3 registered a Kd of 7.5 nM, a koff of 0.00035 s⁻¹ and a kon of 47000 M⁻¹ s⁻¹.

As for B4, binding was put at a Kd of 5.7 nM, the koff amounted to 0.00035 s⁻¹ and the kon came to 61000 M⁻¹ s⁻¹.

The target of another experiment is T2, His-tagged cynomolgus CTLA-4 (CT4-C5227; Acro Biosystems) (cynomolgus, UniProt G7PL88 36-161).
T2 construct: also called soluble cynomolgus CTLA-4; cyno CTLA-4
T2 sequence (G7PL88 entry or part of it limits assumed, form in doubt): as the sequence (P16410 36-161 limits assumed) above, with S14N, I18T, L106M counted along it
Kind of experiment: BLI (Octet). Here is the method: (§4) The binding specificity and affinity of each full-length antibody towards CTLA-4 were determined using biolayer interferometry (BLI) and/or surface plasmon resonance (SPR). Anti-cyno CTLA-4 and anti-mouse CTLA-4 affinities were tested using ForteBio (BLI). Anti-human CTLA-4 affinities were measured using Carterra (SPR).
(§5) For BLI, antibodies were loaded onto an Anti-Human IgG Fc (AHC) biosensor using the Octet Red96 system (ForteBio). Loaded biosensors were dipped into antigen dilutions beginning at 300 nM, with 6 serial dilutions at 1:3. Kinetic analysis was performed using a 1:1 binding model and global fitting.
In general terms: Biolayer interferometry detects binding as a change in optical thickness at a sensor tip.
On to B1, for which the affinity, expressed as Kd, was 1.2 nM.

B2 showed a Kd of 9.6 nM.

B3 gave a Kd of 1.6 nM.

The molecule B4 yielded a Kd of 1.6 nM.

The next experiment has as its target mouse CTLA-4 (mouse, UniProt P09793 36-161, limits assumed). Kind of experiment: BLI (Octet). Here is the method: as §4, §5
For B1, the binding result is recorded as “no binding (tested: 300 nM)”.

Regarding B3, the binding result was “no binding (tested: 300 nM)”.

On to B4, for which binding was characterised by a dissociation constant (Kd) of 87.8 nM.

The next experiment concerns the target T2, His-tagged cynomolgus CTLA-4 …. Kind of experiment: BLI (Octet), single antigen concentration. How it is done:
(§6) Table 23. In vitro characterization of scFvs reformatted as full-length antibodies. kon, koff, and KD of the indicated CTLA-4 mAbs for soluble human CTLA-4 was determined by SPR (Carterra). Geometric MFI of the indicated CTLA-4 mAbs bound to CTLA-4⁺ or CD27⁺ CHO cells as detected by a secondary human IgG antibody and flow cytometry. Affinity (KD) of the indicated CTLA-4 mAbs for soluble cynomolgus CTLA-4 was determined by a single antigen concentration BLI measurement (Octet). […] Due to constraints on sample size in each Promega bioassay kit, this set of aCTLA-4 mAbs was analyzed using multiple plates (plate letters correspond to Plate A-D in FIG. 20D).
Antibodies were loaded at 5 μg/mL onto Protein A biosensors that were dipped into 80 nM antigen, and kinetic constants were calculated using a monovalent model.
For the molecule B1, the affinity, expressed as Kd, was 1.2 nM.

Regarding B2, the Kd worked out at 9.6 nM.

As for B4, the affinity, expressed as Kd, was 1.6 nM. Against the preceding molecule, the Kd is about 6-fold lower.

For another experiment, the target named is T3, human CTLA-4 expressed on the cell surface (human, UniProt P16410 36-223). Kind of experiment: cell-based or functional assay.
T3 sequence (P16410 36-223 limits assumed): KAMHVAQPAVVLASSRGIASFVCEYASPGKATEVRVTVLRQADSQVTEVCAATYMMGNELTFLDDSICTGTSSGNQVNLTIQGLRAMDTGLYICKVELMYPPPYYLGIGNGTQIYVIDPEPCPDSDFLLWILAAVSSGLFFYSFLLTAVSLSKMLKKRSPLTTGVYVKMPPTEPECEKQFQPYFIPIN
With B1, the “Promega assay % inhibition” value turned out to be 81% and the “Promega assay antagonist (EC50, ug/mL)” value was 0.15 µg/mL.

On to B2, for which the “Promega assay % inhibition” value turned out to be 13.3% and the “Promega assay antagonist (EC50, ug/mL)” value amounted to 0.09 µg/mL.

On to B3, for which the “Promega assay % inhibition” value came out at 26.6% and the “Promega assay antagonist (EC50, ug/mL)” value was 0.42 µg/mL.

Consider B4, for which the “Promega assay % inhibition” value was 61.7% and the “Promega assay antagonist (EC50, ug/mL)” value came to 0.18 µg/mL.

In a further experiment the target is T4, CD27 on CHO cells (UniProt P26842 20-260, limits assumed).
T4 construct: whole, on cells; also called CD27+ CHO cells; irrelevant antigen (CD27)
T4 sequence (P26842 20-260 limits assumed): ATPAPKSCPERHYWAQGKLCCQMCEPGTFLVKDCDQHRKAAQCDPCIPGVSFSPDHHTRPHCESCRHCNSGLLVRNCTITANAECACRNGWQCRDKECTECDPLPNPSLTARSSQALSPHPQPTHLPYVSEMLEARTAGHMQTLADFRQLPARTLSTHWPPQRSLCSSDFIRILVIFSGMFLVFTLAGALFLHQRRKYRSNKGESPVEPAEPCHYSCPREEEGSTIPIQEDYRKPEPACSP
The experiment can be described thus: flow cytometry, mixed CTLA-4+ and CD27+ CHO cells. How it is done: To determine if the CTLA-4 mAbs bound the appropriate antigen expressed on the surface of mammalian cells, CHO cell lines stably expressing human CTLA-4 or an irrelevant antigen (CD27) were generated. Cells (0.5×10⁶ each cell line) were combined and washed with MACS buffer (Dulbecco's Phosphate Buffered Saline [DPBS], with 0.5% bovine serum albumin [BSA], and 2 mM ethylenediaminetetraacetic acid [EDTA]). The cells were incubated with 10 μg/mL anti-CTLA-4 for 30 min at 4° C., then excess, unbound mAbs were removed by washing twice with MACS buffer. The cells were then stained with PE-conjugated anti-Human IgG Fc antibody (clone M1310G05, BioLegend 410720, San Diego, Calif., USA) to detect bound anti-CTLA-4 and with fluorescein isothiocyanate (FITC)-conjugated anti-CD27 (clone 0323, BioLegend 302806, San Diego, Calif., USA) to distinguish the cells expressing the irrelevant antigen. Cells were washed twice with MACS buffer, fixed with 4% paraformaldehyde fixation buffer (BioLegend 420801, San Diego, Calif., USA) for 20 minutes at room temperature and washed twice more with MACS buffer. […] Binding of mAbs to CTLA-4 on the cell surface was determined using LSR II (BD Biosciences, San Jose, Calif., USA) or CytoFLEX LX (Beckman Coulter, Brea. Calif., USA) flow cytometers and analyzed using FlowJo (v10.6.1, BD Biosciences, San Jose, Calif., USA).
Regarding B1, the binding result is reported as “no binding (tested: 10 µg/mL)”.

Regarding B2, the binding result was “no binding (tested: 10 µg/mL)”.

Regarding B4, the binding result is reported as “no binding (tested: 10 µg/mL)”.

The target of a further experiment is T3, human CTLA-4 expressed on the cell …. The experiment can be described thus: cell-based or functional assay. This is another data set of the same source.
Regarding B1, the “Cell-based blocking activity EC50” value worked out at 0.15 µg/mL and the “Cell-based blocking activity max signal (RLU)” value amounted to 444 RLU.

As for B2, the “Cell-based blocking activity EC50” value stood at 0.09 µg/mL and the “Cell-based blocking activity max signal (RLU)” value stood at 73 RLU.

As for B4, the “Cell-based blocking activity EC50” value amounted to 0.18 µg/mL and the “Cell-based blocking activity max signal (RLU)” value came out at 338 RLU.

Another experiment addresses T4, CD27 on CHO cells. Kind of experiment: flow cytometry, 10 µg/mL mAb, geometric MFI. Here is the method: as §6
(§7) To determine if the CTLA-4 mAbs bound the appropriate antigen expressed on the surface of mammalian cells, CHO cell lines stably expressing human CTLA-4 or an irrelevant antigen (CD27) were generated. Cells (0.5×10⁶ each cell line) were combined and washed with MACS buffer (Dulbecco's Phosphate Buffered Saline [DPBS], with 0.5% bovine serum albumin [BSA], and 2 mM ethylenediaminetetraacetic acid [EDTA]). The cells were incubated with 10 μg/mL anti-CTLA-4 for 30 min at 4° C., then excess, unbound mAbs were removed by washing twice with MACS buffer. The cells were then stained with PE-conjugated anti-Human IgG Fc antibody (clone M1310G05, BioLegend 410720, San Diego, Calif., USA) to detect bound anti-CTLA-4 and with fluorescein isothiocyanate (FITC)-conjugated anti-CD27 (clone 0323, BioLegend 302806, San Diego, Calif., USA) to distinguish the cells expressing the irrelevant antigen. Cells were washed twice with MACS buffer, fixed with 4% paraformaldehyde fixation buffer (BioLegend 420801, San Diego, Calif., USA) for 20 minutes at room temperature and washed twice more with MACS buffer.
A general note: A flow cytometer gives signals particle by particle.
Turning to B1, the “MFI of CD27+ CHO cells” value turned out to be 16.3.

For B2, the “MFI of CD27+ CHO cells” value was 17.

With B4, the “MFI of CD27+ CHO cells” value was 17.8.

The next experiment addresses T3, human CTLA-4 expressed on the cell …. The experiment can be described thus: flow cytometry, 10 µg/mL mAb, geometric MFI. How it is done:
as §6, §7
Turning to B1, the “MFI of CTLA-4+ CHO cells” value came to 999.

In the case of B2, the “MFI of CTLA-4+ CHO cells” value stood at 1024.

On to B4, for which the “MFI of CTLA-4+ CHO cells” value amounted to 939.

In a further experiment the target is T1, His-tagged human CTLA-4 (CT4-H5229; …). Kind of experiment: SPR (Carterra), soluble human CTLA-4.
B1: the affinity, expressed as Kd, was 3 nM; the koff is 0.00023 s⁻¹; the kon was determined as 76000 M⁻¹ s⁻¹.

As for B2, the affinity, expressed as Kd, was 3.2 nM; the koff is 0.00042 s⁻¹; the kon turned out to be 130000 M⁻¹ s⁻¹.

The molecule B4 registered a Kd of 5.7 nM, a koff of 0.00035 s⁻¹ and a kon of 61000 M⁻¹ s⁻¹.

Another experiment shares this target. The experiment can be described thus: SPR (Carterra). The source holds these as a separate data set. How it is done: as §1, §2, §3
For the molecule B1, the Kd came to 3 nM.

The molecule B2 came in with a Kd of 3.2 nM.

B3 came in with a Kd of 7.5 nM.

B4 displayed a Kd of 5.7 nM. This Kd and that of the molecule before are within 1.5-fold of each other.
